Among the data in paper PMC8297725 are pKa values, retold here.

Data set [1] deals with Asp181 (UniProt position 181, YTTWPDFGVPE). As to the kind of experiment: kinetics. As to conditions: 25 °C; constant ionic strength buffer mix (value not stated); 50 mM sodium acetate, 100 mM Tris, 100 mM bis-Tris; steady-state turnover with the substrate pNPP.
The target of the next data set is Cys215 (UniProt position 215, PVVVHCSAGIG). As to the kind of experiment: kinetics. As to conditions: 25 °C; constant ionic strength buffer mix (value not stated); 50 mM sodium acetate, 100 mM Tris, 100 mM bis-Tris; steady-state turnover with the substrate pNPP.
Data set [2] has as its target Asp181 (UniProt position 181, YGTWPDFGVPE). As to the kind of experiment: kinetics. Particulars: 25 °C; constant ionic strength buffer mix (value not stated); 50 mM sodium acetate, 100 mM Tris, 100 mM bis-Tris; steady-state turnover with the substrate pNPP.
A further data set addresses Asp356 (UniProt position 356, VGNWPDQTAVS). As to the kind of experiment: kinetics. Particulars: 25 °C; constant ionic strength buffer mix (value not stated); 50 mM sodium acetate, 100 mM Tris, 100 mM bis-Tris; steady-state turnover with the substrate pNPP.
Data set [3] deals with T1, Cys403 (UniProt position 403, RPVIHCRAGVG). As to the kind of experiment: kinetics. Particulars: 25 °C; constant ionic strength buffer mix (value not stated); 50 mM sodium acetate, 100 mM Tris, 100 mM bis-Tris; steady-state turnover with the substrate pNPP.
In data set [4] the target is T1, Cys403. As to the kind of experiment: chemical modification. As to conditions: ligand-free enzyme.

The pKa is the pH at which an ionisable group is half protonated. Regarding “Protein tyrosine phosphatase 1B (PTP1B), wild type (Homo sapiens)”, the pKa with Asp181 [1] was determined as 6.44 ± 0.26; with Cys215, 5.08 ± 0.20.
Take PTP1B T177G (Homo sapiens; T177G): the pKa with Asp181 [2] is 6.37 ± 0.28; in the data set with Cys215 it was 5.44 ± 0.37.
For “YopH (Yersinia protein tyrosine phosphatase), wild type (Yersinia (species not stated in the article))”, the pKa with Asp356 was 5.58 ± 0.34; in the data set with Cys403 [3], 5.02 ± 0.27; in the data set with Cys403 [4] it was 4.6 ± 0.2; in the data set with Cys403 [4] (cited from earlier work), 4.67 ± 0.15.
